Measured values taken from publication PMC6862464, “Structural Insights into AQP2 Targeting to Multivesicular Bodies” (International Journal of Molecular Sciences, 2019).

Tests used:
Assay in all cases: other fluorescence titration; Alexa 488-labeled, dephosphorylated AQP2 (around 1 uM) in the cuvette, titrated with unlabeled LIP5; total fluorescence; 20 mM Tris-HCl pH 8, 300 mM NaCl, 0.2% OGNG; triplicate titrations
Conditions in all cases: both partners purified
[1] = target: T1, full-length human LIP5 K71A (human, UniProt Q9NP79 1-307, K71A)
T1 construct: LIP5, human, full length, point mutant; spacer before the TEV site and His tag, as in m2; Mutant of m2; dimer as said of full-length LIP5 (cited); source: E. coli BL21*(DE3), purified (HisTrap, SEC)
T1 sequence: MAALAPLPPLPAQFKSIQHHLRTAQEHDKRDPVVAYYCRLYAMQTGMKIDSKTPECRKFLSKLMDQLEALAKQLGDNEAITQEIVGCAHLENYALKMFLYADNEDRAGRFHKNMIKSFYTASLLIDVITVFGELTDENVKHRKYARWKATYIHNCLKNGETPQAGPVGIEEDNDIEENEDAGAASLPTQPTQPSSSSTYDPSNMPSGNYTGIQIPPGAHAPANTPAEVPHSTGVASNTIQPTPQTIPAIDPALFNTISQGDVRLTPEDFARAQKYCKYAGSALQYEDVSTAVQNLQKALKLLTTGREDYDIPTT

[2] = target: T2, full-length human lysosomal trafficking regulator-interacting protein 5 (FL-LIP5) (human, UniProt Q9NP79 1-307)
T2 construct: spacer between the last LIP5 residue and the TEV protease site that precedes the His tag; same tag, TEV site and linker as ND-LIP5; No TEV cleavage is described; also called full-length LIP5; wild-type LIP5; source: E. coli BL21*(DE3), purified (HisTrap, SEC)
T2 sequence: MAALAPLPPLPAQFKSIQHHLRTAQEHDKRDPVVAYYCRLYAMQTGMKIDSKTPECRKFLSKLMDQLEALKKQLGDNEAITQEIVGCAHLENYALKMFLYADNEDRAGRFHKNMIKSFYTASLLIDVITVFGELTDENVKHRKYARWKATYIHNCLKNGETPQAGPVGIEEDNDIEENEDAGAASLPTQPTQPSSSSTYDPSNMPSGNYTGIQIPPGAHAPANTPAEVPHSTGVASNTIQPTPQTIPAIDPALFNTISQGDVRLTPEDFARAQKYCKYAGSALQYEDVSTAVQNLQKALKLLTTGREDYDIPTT

[3] = target: T3, full-length human LIP5 M43A (human, UniProt Q9NP79 1-307, M43A)
T3 construct: LIP5, human, full length, point mutant; spacer before the TEV site and His tag, as in m2; Mutant of m2; dimer as said of full-length LIP5 (cited); source: E. coli BL21*(DE3), purified (HisTrap, SEC)
T3 sequence: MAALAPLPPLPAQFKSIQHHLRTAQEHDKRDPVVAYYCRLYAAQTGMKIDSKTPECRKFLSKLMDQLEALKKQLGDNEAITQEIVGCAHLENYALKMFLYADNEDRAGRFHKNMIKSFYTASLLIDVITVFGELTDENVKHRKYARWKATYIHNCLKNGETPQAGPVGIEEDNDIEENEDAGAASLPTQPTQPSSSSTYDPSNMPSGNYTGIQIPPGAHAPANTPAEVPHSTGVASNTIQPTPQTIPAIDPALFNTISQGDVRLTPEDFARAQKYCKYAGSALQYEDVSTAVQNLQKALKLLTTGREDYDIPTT

[4] = target: T4, full-length human LIP5 M47A (human, UniProt Q9NP79 1-307, M47A)
T4 construct: LIP5, human, full length, point mutant; spacer before the TEV site and His tag, as in m2; Mutant of m2; dimer as said of full-length LIP5 (cited); source: E. coli BL21*(DE3), purified (HisTrap, SEC)
T4 sequence: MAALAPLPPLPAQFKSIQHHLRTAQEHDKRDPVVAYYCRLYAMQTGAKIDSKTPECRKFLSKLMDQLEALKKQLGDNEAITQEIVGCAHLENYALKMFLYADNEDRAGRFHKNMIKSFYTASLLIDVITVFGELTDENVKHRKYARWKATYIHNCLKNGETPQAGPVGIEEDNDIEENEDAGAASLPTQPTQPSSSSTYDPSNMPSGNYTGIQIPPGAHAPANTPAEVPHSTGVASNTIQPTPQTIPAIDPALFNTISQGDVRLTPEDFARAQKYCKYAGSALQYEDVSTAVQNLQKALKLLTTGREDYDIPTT

[5] = target: T5, full-length human LIP5 L67A (human, UniProt Q9NP79 1-307, L67A)
T5 construct: LIP5, human, full length, point mutant; spacer before the TEV site and His tag, as in m2; Mutant of m2; dimer as said of full-length LIP5 (cited); source: E. coli BL21*(DE3), purified (HisTrap, SEC)
T5 sequence: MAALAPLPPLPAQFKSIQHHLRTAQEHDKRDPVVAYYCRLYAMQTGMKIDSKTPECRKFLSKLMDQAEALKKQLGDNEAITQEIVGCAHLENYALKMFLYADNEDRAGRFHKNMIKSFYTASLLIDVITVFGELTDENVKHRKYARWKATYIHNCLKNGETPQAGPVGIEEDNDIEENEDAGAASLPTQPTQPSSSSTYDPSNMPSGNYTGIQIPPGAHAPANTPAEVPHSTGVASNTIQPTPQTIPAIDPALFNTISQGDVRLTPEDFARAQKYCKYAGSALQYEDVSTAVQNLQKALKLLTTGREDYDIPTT

[6] = target: T6, full-length human LIP5 E68A (human, UniProt Q9NP79 1-307, E68A)
T6 construct: LIP5, human, full length, point mutant; spacer before the TEV site and His tag, as in m2; Mutant of m2; dimer as said of full-length LIP5 (cited); source: E. coli BL21*(DE3), purified (HisTrap, SEC)
T6 sequence: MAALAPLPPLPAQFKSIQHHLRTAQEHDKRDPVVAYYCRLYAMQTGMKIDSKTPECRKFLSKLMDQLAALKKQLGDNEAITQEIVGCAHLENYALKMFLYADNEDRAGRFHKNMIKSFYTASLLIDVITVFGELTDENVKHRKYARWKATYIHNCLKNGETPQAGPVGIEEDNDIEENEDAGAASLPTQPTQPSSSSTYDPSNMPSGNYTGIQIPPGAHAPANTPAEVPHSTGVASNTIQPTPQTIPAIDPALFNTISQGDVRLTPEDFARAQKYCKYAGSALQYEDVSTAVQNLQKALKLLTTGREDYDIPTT

- Kd [1]: 137 nM
- Kd [2]: 237 nM
- Kd [3]: 457 nM
- Kd [4]: 463 nM
- Kd [5]: 298 nM
- Kd [6]: 243 nM
B1: human aquaporin 2 (AQP2), wild-type (natural protein, UniProt P41181 1-271, looked up)
chain: MWELRSIAFSRAVFAEFLATLLFVFFGLGSALNWPQALPSVLQIAMAFGLGIGTLVQALGHISGAHINPAVTVACLVGCHVSVLRAAFYVAAQLLGAVAGAALLHEITPADIRGDLAVNALSNSTTAGQAVTVELFLTLQLVLCIFASTDERRGENPGTPALSIGFSVALGHLLGIHYTGCSMNPARSLAPAVVTGKFDDHWVFWIGPLVGAILGSLLYNYVLFPPAKSLSERLAVLKGLEPDTDWEEREVRRRQSVELHSPQSLPRGTKA
modifications: cysteine residues labeled with C5 maleimide Alexa 488; dephosphorylated with alkaline phosphatase before labeling
notes: concentrations and molar ratios seem to count monomers; His-tag is called uncleavable; also called WT; labeled AQP2; source: Pichia pastoris, purified (HisTrap, SEC) in OGNG; not shown: His-tag, N-terminal, kept
